{
  "source": "paper PMC13299607",
  "parents": {"B1": {"name": "YFP-RepoMan-wt [not stated] / endogenous PP2A-B56γ [human (endogenous in HeLa)] (parent)", "chain 1": "MDANSKDKPPETKESAMNNAGNASFILGTGKIVTPQKHAELPPNPCTPDTFKSPLNFSTVTVEQLGITPESFVRNSAGKSSSYLKKCRRRSAVGARGSPETNHLIRFIARQQNIKNARKSPLAQDSPSQGSPALYRNVNTLRERISAFQSAFHSIKENEKMTGCLEFSEAGKESEMTDLTRKEGLSACQQSGFPAVLSSKRRRISYQRDSDENLTDAEGKVIGLQIFNIDTDRACAVETSVDLSEISSKLGSTQSGFLVEESLPLSELTETSNALKVADCVVGKGSSDAVSPDTFTAEVSSDAVPDVRSPATPACRRDLPTPKTFVLRSVLKKPSVKMCLESLQEHCNNLYDDDGTHPSLISNLPNCCKEKEAEDEENFEAPAFLNMRKRKRVTFGEDLSPEVFDESLPANTPLRKGGTPVCKKDFSGLSSLLLEQSPVPEPLPQPDFDDKGENLENIEPLQVSFAVLSSPNKSSISETLSGTDTFSSSNNHEKISSPKVGRITRTSNRRNQLVSVVEESVCNLLNTEVQPCKEKKINRRKSQETKCTKRALPKKSQVLKSCRKKKGKGKKSVQKSLYGERDIASKKPLLSPIPELPEVPEMTPSIPSIRRLGSGYFSSNGKLEEVKTPKNPVKRKDLLRHDPDLHMHQGYDKYDVSEFCSYIKSSSSLGNATSDEDPNTNIMNINENKNIPKAKNKSESENEPKAGTDSPVSCASVTEERVASDSPKPALTLQQGQEFSAGGQNAENLCQFFKISPDLNIKCERKDDFLGAAEGKLQCNRLMPNSQKDCHCLGDVLIENTKESKSQSEDLGRKPMESSSVVSCRDRKDRRRSMCYSDGRSLHLEKNGNHTPSSSVGSSVEISLENSELFKDLSDAIEQTFQRRNSETKVRRSTRLQKDLENEGLVWISLPLPSTSQKAKRRTICTFDSSGFESMSPIKETVSSRQKPQMAPPVSDPENSQGPAAGSSDEPGKRRKSFCISTLANTKATSQFKGYRRRSSLNGKGESSLTALERIEHNGERKQ", "chain 2": "not shown"}},
  "data": [
    {"variants_of": "B1", "assay": "proximity ligation assay (PLA)", "conditions": "with endogenous PP2A-B56γ [human (endogenous in HeLa)]; asynchronous; endogenous RepoMan knocked down using siRM; Anti-GFP+B56γ antibodies; median shown in red; read off a plot", "values": [
      {"variant": "chain 1 P604A", "response (PLA foci per cell)": 10}
    ]},
    {"variants_of": "B1", "assay": "proximity ligation assay (PLA)", "conditions": "with endogenous PP2A-B56γ [human (endogenous in HeLa)]; monastrol arrested; endogenous RepoMan knocked down using siRM; Anti-GFP+B56γ antibodies; median shown in red; read off a plot", "values": [
      {"variant": "chain 1 P604A", "response (PLA foci per cell)": 19}
    ]},
    {"variants_of": "B1", "assay": "immunofluorescence, dCas9-DARPin recruitment to ectopic foci on chr 1", "conditions": "with mCherry-B56γ; prometaphase-arrested cells; average of 3 independent experiments, 58 (wt) 60 (P604A) cells; read off a plot", "values": [
      {"variant": "chain 1 P604A", "response": 0.45}
    ]}
  ]
}
